Test [1] deals with HLA-A*01:01. The experiment in a line: IEDB peptide-MHC binding, purified MHC/competitive/radioactivity; filed as Kd, often an IC50 or EC50 that approximates it; ≥ and ≤ were set here for values at or beyond the usual limits of such assays.
The target of a further test is HLA-A*23:01. The description is as above.
The next test concerns the target HLA-A*24:02. The description is as above.
The target of the next test is HLA-A*26:01. The description is as above.
A further test has as its target HLA-A*29:02. Described as above.
For another test, the target named is HLA-A*30:02. Described as above.
The target of test [2] is HLA-A*01:01. The experiment in a line: IEDB peptide-MHC binding, purified MHC/direct/fluorescence; filed as Kd, often an IC50 or EC50 that approximates it; ≥ and ≤ were set here for values at or beyond the usual limits of such assays. To be noted: source organism: SARS-CoV1.
A further test concerns the target HLA-A*11:01. Described as above. As to conditions: source organism: SARS-CoV1.
A further test has as its target HLA-B*15:01. The test is described as above. As to conditions: source organism: SARS-CoV1.
The target in another test is HLA-B*58:01. The description is as above. As to conditions: source organism: SARS-CoV1.
For another test, the target named is HLA-A*02:01. Kind of test: IEDB peptide-MHC binding, purified MHC/competitive/fluorescence; filed as Kd, often an IC50 or EC50 that approximates it; ≥ and ≤ were set here for values at or beyond the usual limits of such assays. To be noted: source organism: Vaccinia virus WR.
The next test has as its target HLA-B*08:01. The experiment in a line: IEDB peptide-MHC binding, purified MHC/competitive/radioactivity; filed as Kd, often an IC50 or EC50 that approximates it; ≥ and ≤ were set here for values at or beyond the usual limits of such assays. As to conditions: source organism: Vaccinia virus WR.
In the next test the target is HLA-B*07:02. The description is as above.
Another test deals with HLA-B*51:01. The description is as above.
In the next test the target is HLA-B*53:01. Described as above.
For another test, the target named is HLA-B*35:01. The test is described as above. As to conditions: source organism: Dengue virus 4 Philippines/H241/1956.
Where [3] appears, read: source organism: Mammarenavirus guanaritoense.
[4] abbreviates: source organism: SARS coronavirus Tor2.
Where [5] appears, read: source organism: Dengue virus 2 Peru/IQT2913/1996.
Setting [6] is: source organism: Mammarenavirus juninense.
The mark [7] stands for this setting: source organism: Dengue virus 4 Philippines/H241/1956.

With SMKSVQNNTV, the equilibrium dissociation constant (Kd) with HLA-A*01:01 [1] (setting [3]) was at least 70.4 µM; with HLA-A*23:01 (setting [3]) it was at least 70 µM; with HLA-A*24:02 (setting [3]), at least 70.3 µM; with HLA-A*26:01 (setting [3]), at least 69.7 µM; in the test with HLA-A*29:02 (setting [3]), at least 53.1 µM; with HLA-A*30:02 (setting [3]) it was 2.98 µM.
As for SSLPSYAAY, the Kd was 1.62 µM with HLA-A*01:01 [2]; 0.39 µM with HLA-A*11:01; 0.0526 µM in the test with HLA-B*15:01; 0.287 µM with HLA-B*58:01; at least 77.8 µM with HLA-A*23:01 (setting [4]); at least 77.6 µM in the test with HLA-A*24:02 (setting [4]). Also, the Kd with HLA-A*26:01 (setting [4]) amounted to 5.04 µM; with HLA-A*29:02 (setting [4]) it was 0.00149 µM; with HLA-A*30:02 (setting [4]) it was 0.00027 µM.
Consider TEETFKLSY, for which the Kd was 7.91 µM with HLA-A*01:01 [1] (setting [4]); at least 62.8 µM with HLA-A*23:01 (setting [4]); at least 30.2 µM in the test with HLA-A*24:02 (setting [4]); 15.3 µM in the test with HLA-A*26:01 (setting [4]); 0.141 µM with HLA-A*29:02 (setting [4]); 3.6 µM in the test with HLA-A*30:02 (setting [4]).
In the case of TLKQRLTNL, the Kd worked out at 1.39 µM with HLA-A*02:01 and 0.00174 µM with HLA-B*08:01.
For TPMMRHTIEN, in the test with HLA-B*07:02 (source organism: Dengue virus 1 Brazil/97-11/1997), the equilibrium dissociation constant (Kd) was 1.94 µM.
Turning to TPVESWEEI, the Kd in the test with HLA-B*51:01 (setting [5]) turned out to be 10.5 µM; in the test with HLA-B*53:01 (setting [5]) it was 0.157 µM.
Consider VDSSQGSEY, for which the Kd in the test with HLA-A*01:01 [1] (setting [4]) was 0.892 µM; with HLA-A*23:01 (setting [4]), at least 77.8 µM; in the test with HLA-A*24:02 (setting [4]), at least 77.6 µM; with HLA-A*26:01 (setting [4]) it was at least 24.4 µM; with HLA-A*29:02 (setting [4]), 1.05 µM; in the test with HLA-A*30:02 (setting [4]), 1.98 µM.
With VGEEFFHQY, the Kd with HLA-A*01:01 [1] (setting [6]) was 3.34 µM; with HLA-A*23:01 (setting [6]), 0.251 µM; with HLA-A*24:02 (setting [6]), 1.62 µM; with HLA-A*26:01 (setting [6]) it was at least 77.9 µM; in the test with HLA-A*29:02 (setting [6]) it was 2.38 µM; in the test with HLA-A*30:02 (setting [6]) it was 0.00674 µM.
In the case of VIEGPTTCGY, the Kd is 0.109 µM with HLA-A*01:01 [1] (setting [4]); at least 38.1 µM with HLA-A*23:01 (setting [4]); 17 µM in the test with HLA-A*24:02 (setting [4]); 0.907 µM in the test with HLA-A*26:01 (setting [4]); 0.152 µM with HLA-A*29:02 (setting [4]); 0.0262 µM with HLA-A*30:02 (setting [4]).
In the case of VYRGTTTYKL, the Kd with HLA-A*01:01 [1] (setting [4]) turned out to be 3.91 µM; with HLA-A*23:01 (setting [4]), 0.101 µM; in the test with HLA-A*24:02 (setting [4]), 0.136 µM; in the test with HLA-A*26:01 (setting [4]), 1 µM; with HLA-A*29:02 (setting [4]), 0.216 µM; in the test with HLA-A*30:02 (setting [4]), 6.88 µM.
Consider WAYHGSYEA, for which the Kd with HLA-B*35:01 came out at 0.167 µM.
For the sequence WPLHRMDLGV, the Kd in the test with HLA-B*51:01 (setting [7]) was 3.28 µM.
Turning to YCNYTKFWY, the Kd in the test with HLA-A*01:01 [1] (setting [6]) is 18.5 µM; in the test with HLA-A*23:01 (setting [6]) it was at least 22.2 µM; in the test with HLA-A*24:02 (setting [6]), at least 77.5 µM; with HLA-A*26:01 (setting [6]), at least 77.9 µM; with HLA-A*29:02 (setting [6]), 2 µM; with HLA-A*30:02 (setting [6]), 0.674 µM.
Take YFMKFRRVF: the dissociation constant Kd with HLA-A*01:01 [1] (setting [4]) was at least 78.1 µM; with HLA-A*23:01 (setting [4]), at least 26.9 µM; in the test with HLA-A*24:02 (setting [4]), at least 77.6 µM; in the test with HLA-A*26:01 (setting [4]), at least 49.3 µM; in the test with HLA-A*29:02 (setting [4]), 12.7 µM; with HLA-A*30:02 (setting [4]), at least 22.1 µM.
In the case of YPLAIPVTM, the Kd with HLA-B*07:02 (setting [7]) amounted to 0.0446 µM; with HLA-B*35:01 it was 0.00193 µM; in the test with HLA-B*51:01 (setting [7]), 0.0387 µM; in the test with HLA-B*53:01 (setting [7]), 0.00347 µM.

These data come from the Immune Epitope Database (IEDB).
